Experimental data published in US20250101074A1 (Affibody, published 2025).

Assays:
Assay in all cases: SPR (Biacore), PEP07843 immobilized, analyte protein injected
hIL-17C = target: T1, hIL-17C (human, UniProt Q9P0M4 19-197)
T1 sequence (looked up): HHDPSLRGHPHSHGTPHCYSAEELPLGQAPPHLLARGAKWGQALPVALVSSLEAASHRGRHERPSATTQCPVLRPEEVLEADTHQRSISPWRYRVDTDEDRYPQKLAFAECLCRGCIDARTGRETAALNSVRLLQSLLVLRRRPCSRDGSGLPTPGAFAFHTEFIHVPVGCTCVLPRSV
Description: (§1) In the binding experiment, HBS-EP was used as running buffer and the flow rate was 30 μl/min. […] The analytes, i.e. the panels of 24 or 12 different proteins, were each diluted in HBS-EP or HBS-EP supplemented with 500 mM NaCl to final concentrations of from 0.4 to 250 nM and injected for 5 min. […] The results were analyzed using the BiaEvaluation software.
(§2) The Z-ABD-Z polypeptides were injected over surfaces containing HSA followed by injection of the analyte proteins.

hIL-1beta = hIL-1beta (human, UniProt P01584 117-269)
Description: as §1, §2

holo-Transferrin = holo-Transferrin (UniProt P02787 20-698)
Description: as §1, §2

hIL-17E = target: T2, hIL-17E (human, UniProt Q9H293 33-177)
T2 sequence (looked up): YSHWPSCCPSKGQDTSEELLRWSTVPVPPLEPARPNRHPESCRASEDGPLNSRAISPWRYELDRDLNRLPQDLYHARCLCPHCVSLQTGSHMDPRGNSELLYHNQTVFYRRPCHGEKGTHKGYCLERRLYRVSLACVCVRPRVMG
Description: as §1, §2

IL-17RA = target: T3, IL-17RA (UniProt Q96F46 33-320)
T3 sequence (looked up): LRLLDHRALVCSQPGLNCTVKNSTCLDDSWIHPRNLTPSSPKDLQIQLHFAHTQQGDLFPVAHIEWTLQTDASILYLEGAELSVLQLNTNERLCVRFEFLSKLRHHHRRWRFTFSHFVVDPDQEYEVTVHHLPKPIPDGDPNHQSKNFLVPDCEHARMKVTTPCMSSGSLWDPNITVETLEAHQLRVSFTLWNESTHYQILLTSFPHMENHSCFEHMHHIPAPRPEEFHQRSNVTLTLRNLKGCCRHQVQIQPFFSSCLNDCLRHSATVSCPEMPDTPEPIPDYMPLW
Description: as §1, §2

human IL-17F = target: T4, human IL-17F (human, UniProt Q96PD4 31-163)
T4 construct: R&D Systems cat. no; 1335-IL/CF; also called hIL-17F
T4 sequence: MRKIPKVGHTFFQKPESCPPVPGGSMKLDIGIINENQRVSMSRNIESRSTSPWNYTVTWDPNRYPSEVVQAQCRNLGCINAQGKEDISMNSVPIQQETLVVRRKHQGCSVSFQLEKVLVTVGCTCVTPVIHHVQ
Description: as §1, §2

hIL-17D = target: T5, hIL-17D (human, UniProt Q8TAD2 18-202, limits assumed)
T5 sequence (looked up): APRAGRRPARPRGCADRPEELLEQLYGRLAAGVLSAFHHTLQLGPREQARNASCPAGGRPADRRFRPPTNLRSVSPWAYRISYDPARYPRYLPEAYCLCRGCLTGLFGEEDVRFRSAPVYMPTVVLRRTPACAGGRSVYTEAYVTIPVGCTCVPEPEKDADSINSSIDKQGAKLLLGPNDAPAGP
Description: as §1, §2

hGM-CSF = hGM-CSF (human, UniProt P04141 18-144)
Description: as §1, §2

hIL-6 = hIL-6 (human, UniProt P05231 29-212)
Description: as §1, §2

Measured: binding result

hGM-CSF, sequence (P04141 18-144 limits assumed): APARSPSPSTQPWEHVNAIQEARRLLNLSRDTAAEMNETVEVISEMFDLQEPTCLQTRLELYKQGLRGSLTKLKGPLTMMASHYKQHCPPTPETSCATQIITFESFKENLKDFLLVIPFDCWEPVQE
holo-Transferrin, sequence (P02787 20-698 limits assumed): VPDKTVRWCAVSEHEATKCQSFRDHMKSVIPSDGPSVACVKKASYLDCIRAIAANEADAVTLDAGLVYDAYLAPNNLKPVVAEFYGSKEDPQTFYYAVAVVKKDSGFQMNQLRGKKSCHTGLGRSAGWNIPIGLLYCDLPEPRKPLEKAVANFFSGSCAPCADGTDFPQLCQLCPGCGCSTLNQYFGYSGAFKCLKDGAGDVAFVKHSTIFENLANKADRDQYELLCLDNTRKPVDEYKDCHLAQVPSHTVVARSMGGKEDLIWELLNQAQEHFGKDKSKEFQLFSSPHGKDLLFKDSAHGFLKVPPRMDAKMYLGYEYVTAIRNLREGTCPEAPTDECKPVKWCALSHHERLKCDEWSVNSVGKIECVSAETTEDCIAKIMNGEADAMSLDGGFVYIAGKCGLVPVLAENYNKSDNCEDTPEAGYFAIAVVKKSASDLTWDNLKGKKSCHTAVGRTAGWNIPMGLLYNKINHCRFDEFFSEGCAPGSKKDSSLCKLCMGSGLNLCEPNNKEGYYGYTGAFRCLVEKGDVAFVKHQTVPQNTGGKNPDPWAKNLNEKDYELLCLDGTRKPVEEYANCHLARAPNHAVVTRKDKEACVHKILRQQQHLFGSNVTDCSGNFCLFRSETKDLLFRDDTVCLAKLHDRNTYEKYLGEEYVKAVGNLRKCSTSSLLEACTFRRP

GSSLAEAKEAANAELDSYGVSDFYKRLIDKAKTVEGVEALKDAILAALP (designed binder) [ABD variant PEP07843]
no binding (tested: 50, 250 nM): hIL-17C | hIL-1beta | holo-Transferrin | hIL-17E | IL-17RA | human IL-17F | hIL-17D | hGM-CSF | hIL-6
